Measured values as given in US20190309093A1.

Columns and labels:
[1] = molecular target: CD3 on Jurkat luciferase reporter cells (UniProt P07766); assay: flow cytometry of Jurkat_NFAT_Luc2P cells; reference value, printed in all three panels on the left
[2] = molecular target: CD3 on Jurkat luciferase reporter cells (UniProt P07766); assay: flow cytometry of Jurkat_NFAT_Luc2P cells, FITC-A; fold over hIgG
[3] = molecular target: CD3 on Jurkat luciferase reporter cells (UniProt P07766); assay: flow cytometry of Jurkat_NFAT_Luc2P cells, PE-A; fold over hIgG

Question: Which Fold [1] does the source give for hIgG (antibody) here?
Answer: Its Fold is 1.

Question: For mOKT3 (antibody), which Fold [2] is on record?
Answer: Its Fold is 45.

Question: For Commercial CD3e(HiT3a) (antibody), which Fold [3] is on record?
Answer: Its Fold is 58.
